Measurements as given in publication PMC9482650, “Quantitative fragmentomics allow affinity mapping of interactomes” (Nature Communications, 2022).

T1: HTRA4, P83105
T1 sequence (P83105 378-476, limits assumed, looked up): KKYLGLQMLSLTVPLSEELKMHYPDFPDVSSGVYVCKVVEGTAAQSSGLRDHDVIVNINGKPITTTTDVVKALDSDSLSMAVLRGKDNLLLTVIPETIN

T2: TJP3_3, O95049
T2 sequence (O95049 375-456, limits assumed, looked up): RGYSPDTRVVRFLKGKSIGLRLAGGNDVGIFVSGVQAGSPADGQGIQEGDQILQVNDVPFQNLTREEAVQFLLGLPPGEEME

T3: APBA1_1, Q02410
T3 sequence (Q02410 651-752, limits assumed, looked up): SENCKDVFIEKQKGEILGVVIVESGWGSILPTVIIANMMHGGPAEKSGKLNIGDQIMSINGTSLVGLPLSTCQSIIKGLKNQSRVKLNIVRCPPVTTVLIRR

T4: MPDZ_5, O75970
T4 sequence (O75970 695-796, limits assumed, looked up): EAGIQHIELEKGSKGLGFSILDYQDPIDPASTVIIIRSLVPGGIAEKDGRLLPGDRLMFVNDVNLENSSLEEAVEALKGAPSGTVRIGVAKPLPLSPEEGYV

T5: HTRA3, P83110
T5 sequence (P83110 354-453, limits assumed, looked up): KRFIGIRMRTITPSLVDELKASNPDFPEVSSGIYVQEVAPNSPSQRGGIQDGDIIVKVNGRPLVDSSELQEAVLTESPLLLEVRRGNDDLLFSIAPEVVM

T6: NHERF3_3, Q5T2W1
T6 sequence (Q5T2W1 238-333, limits assumed, looked up): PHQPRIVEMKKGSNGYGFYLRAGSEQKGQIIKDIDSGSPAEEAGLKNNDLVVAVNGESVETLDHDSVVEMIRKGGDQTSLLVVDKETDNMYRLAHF

T7: DFNB31_1, Q9P202
T7 sequence (Q9P202 135-233, limits assumed, looked up): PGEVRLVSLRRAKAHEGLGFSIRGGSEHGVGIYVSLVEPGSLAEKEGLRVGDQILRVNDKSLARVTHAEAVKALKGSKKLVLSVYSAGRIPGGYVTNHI

T8: ARHGAP21, Q5T5U3
T8 sequence (Q5T5U3 45-169, limits assumed, looked up): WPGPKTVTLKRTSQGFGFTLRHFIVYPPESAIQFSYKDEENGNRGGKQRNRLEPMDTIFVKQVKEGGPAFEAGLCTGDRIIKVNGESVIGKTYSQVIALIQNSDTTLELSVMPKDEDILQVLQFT

T9: RHPN1, Q8TCX5
T9 sequence (Q8TCX5 508-602, limits assumed, looked up): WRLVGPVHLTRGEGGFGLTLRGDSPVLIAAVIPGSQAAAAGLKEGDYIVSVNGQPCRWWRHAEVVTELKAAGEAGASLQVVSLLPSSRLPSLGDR

T10: MPP6, Q9NZW5
T10 sequence (Q9NZW5 125-219, limits assumed, looked up): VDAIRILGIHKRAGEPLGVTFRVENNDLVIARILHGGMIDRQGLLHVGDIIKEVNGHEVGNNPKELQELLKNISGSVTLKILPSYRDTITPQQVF

T11: DLG3_1, Q92796
T11 sequence (Q92796 125-227, limits assumed, looked up): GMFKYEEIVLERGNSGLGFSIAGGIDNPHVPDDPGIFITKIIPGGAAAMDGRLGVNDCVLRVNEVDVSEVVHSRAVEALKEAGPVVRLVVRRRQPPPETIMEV

T12: DLG3_3, Q92796
T12 sequence (Q92796 374-475, limits assumed, looked up): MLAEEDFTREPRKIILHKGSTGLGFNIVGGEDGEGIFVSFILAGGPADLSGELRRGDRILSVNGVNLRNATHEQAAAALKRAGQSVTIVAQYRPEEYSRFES

T13: PCLO, Q9Y6V0
T13 sequence (Q9Y6V0 4491-4600, limits assumed, looked up): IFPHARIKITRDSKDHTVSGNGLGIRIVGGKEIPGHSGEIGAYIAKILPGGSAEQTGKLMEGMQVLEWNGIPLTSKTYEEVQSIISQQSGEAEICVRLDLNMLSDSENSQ


Legend:
Assay in all cases: holdup assay
Design in all cases: key: below the threshold = too weak to quantify, mostly under pKd 3.1 to 4
Conditions in all cases: plain residues with an end cap or a label only (N-terminal biotin on a linker: ado-ado)
HTRA4, P83105 = molecular target: T1, HTRA4, P83105
TJP3_3, O95049 = molecular target: T2, TJP3_3, O95049
GORASP2, Q9H8Y8 = molecular target: GORASP2, Q9H8Y8
APBA1_1, Q02410 = molecular target: T3, APBA1_1, Q02410
MPDZ_5, O75970 = molecular target: T4, MPDZ_5, O75970
DLG1_1, Q12959 = molecular target: DLG1_1, Q12959
PTPN3, P26045 = molecular target: PTPN3, P26045
Sequence of PTPN3, P26045 (P26045 505-587): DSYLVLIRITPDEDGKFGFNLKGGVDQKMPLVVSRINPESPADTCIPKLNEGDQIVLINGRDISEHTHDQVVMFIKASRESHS

MAGI2_6, Q86UL8 = molecular target: MAGI2_6, Q86UL8
Sequence of MAGI2_6, Q86UL8 (Q86UL8 1141-1229): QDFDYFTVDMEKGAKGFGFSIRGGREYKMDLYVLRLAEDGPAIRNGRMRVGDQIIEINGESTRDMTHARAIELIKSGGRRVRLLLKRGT

GORASP1, Q9BQQ3 = molecular target: GORASP1, Q9BQQ3
Sequence of GORASP1, Q9BQQ3 (Q9BQQ3 1-208): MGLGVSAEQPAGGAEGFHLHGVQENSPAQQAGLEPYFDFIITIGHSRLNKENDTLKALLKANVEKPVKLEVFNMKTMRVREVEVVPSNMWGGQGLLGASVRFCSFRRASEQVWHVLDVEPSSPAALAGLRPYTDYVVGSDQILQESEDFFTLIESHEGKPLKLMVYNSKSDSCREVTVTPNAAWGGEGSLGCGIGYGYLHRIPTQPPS

HTRA3, P83110 = molecular target: T5, HTRA3, P83110
PDZRN4_1, Q6ZMN7 = molecular target: PDZRN4_1, Q6ZMN7
Sequence of PDZRN4_1, Q6ZMN7 (Q6ZMN7 213-318): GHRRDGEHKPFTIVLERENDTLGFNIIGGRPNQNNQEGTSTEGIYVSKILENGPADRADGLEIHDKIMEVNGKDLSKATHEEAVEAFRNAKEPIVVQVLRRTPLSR

NHERF3_3, Q5T2W1 = molecular target: T6, NHERF3_3, Q5T2W1
LNX1_3, Q8TBB1 = molecular target: LNX1_3, Q8TBB1
Sequence of LNX1_3, Q8TBB1 (Q8TBB1 500-596): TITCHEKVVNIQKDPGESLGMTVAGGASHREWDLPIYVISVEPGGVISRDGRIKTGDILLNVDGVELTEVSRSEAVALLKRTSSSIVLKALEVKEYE

DFNB31_1, Q9P202 = molecular target: T7, DFNB31_1, Q9P202
ARHGAP21, Q5T5U3 = molecular target: T8, ARHGAP21, Q5T5U3
RHPN1, Q8TCX5 = molecular target: T9, RHPN1, Q8TCX5
MPP6, Q9NZW5 = molecular target: T10, MPP6, Q9NZW5
LIMK2, P53671 = molecular target: LIMK2, P53671
Sequence of LIMK2, P53671 (P53671 143-248): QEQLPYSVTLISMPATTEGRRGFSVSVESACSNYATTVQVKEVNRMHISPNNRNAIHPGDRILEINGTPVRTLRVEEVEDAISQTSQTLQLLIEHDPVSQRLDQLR

ARHGEF12, Q9NZN5-2 = molecular target: ARHGEF12, Q9NZN5-2
Sequence of ARHGEF12, Q9NZN5-2 (Q9NZN5 other isoform, or with tags, fused parts or gaps): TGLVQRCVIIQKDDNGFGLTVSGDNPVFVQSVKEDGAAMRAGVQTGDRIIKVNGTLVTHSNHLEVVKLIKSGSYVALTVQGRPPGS

DLG3_1, Q92796 = molecular target: T11, DLG3_1, Q92796
LNX1_1, Q8TBB1 = molecular target: LNX1_1, Q8TBB1
Sequence of LNX1_1, Q8TBB1 (Q8TBB1 261-371): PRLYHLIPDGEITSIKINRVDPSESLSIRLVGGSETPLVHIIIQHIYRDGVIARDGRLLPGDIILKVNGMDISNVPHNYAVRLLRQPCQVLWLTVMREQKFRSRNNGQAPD

MAGI1_1, Q96QZ7 = molecular target: MAGI1_1, Q96QZ7
Sequence of MAGI1_1, Q96QZ7 (Q96QZ7 1-106): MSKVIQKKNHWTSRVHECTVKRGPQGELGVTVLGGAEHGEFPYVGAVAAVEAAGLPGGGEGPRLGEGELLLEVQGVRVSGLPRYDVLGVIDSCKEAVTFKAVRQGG

DLG3_3, Q92796 = molecular target: T12, DLG3_3, Q92796
PCLO, Q9Y6V0 = molecular target: T13, PCLO, Q9Y6V0

Row | pKd (HTRA4, P83105) | pKd (TJP3_3, O95049) | pKd (GORASP2, Q9H8Y8) | pKd (APBA1_1, Q02410) | pKd (MPDZ_5, O75970) | pKd (DLG1_1, Q12959) | pKd (PTPN3, P26045) | pKd (MAGI2_6, Q86UL8) | pKd (GORASP1, Q9BQQ3) | pKd (HTRA3, P83110) | pKd (PDZRN4_1, Q6ZMN7) | pKd (NHERF3_3, Q5T2W1) | pKd (LNX1_3, Q8TBB1) | pKd (DFNB31_1, Q9P202) | pKd (ARHGAP21, Q5T5U3) | pKd (RHPN1, Q8TCX5) | pKd (MPP6, Q9NZW5) | pKd (LIMK2, P53671) | pKd (ARHGEF12, Q9NZN5-2) | pKd (DLG3_1, Q92796) | Binder | other results
1 | below the threshold | below the threshold | below the threshold | below the threshold | below the threshold | 3.87 | 4.09 | below the threshold | below the threshold | 4.26 | below the threshold | below the threshold | below the threshold | below the threshold | below the threshold | below the threshold | below the threshold | below the threshold | below the threshold | 3.61 | QLSFNTDTLC [ABCA2, Q9BZC7] | pKd (LNX1_1, Q8TBB1): below the threshold; pKd (MAGI1_1, Q96QZ7): below the threshold; pKd (DLG3_3, Q92796): below the threshold; pKd (PCLO, Q9Y6V0): below the threshold
2 | below the threshold | below the threshold | 4.44 | below the threshold | below the threshold | below the threshold | below the threshold | 3.56 | 4.12 | 4.12 | below the threshold | below the threshold | below the threshold | below the threshold | below the threshold | 3.57 | below the threshold | below the threshold | below the threshold | below the threshold | EDLEDEWEVI [TECPR2, O15040] | pKd (LNX1_1, Q8TBB1): below the threshold; pKd (MAGI1_1, Q96QZ7): below the threshold; pKd (DLG3_3, Q92796): below the threshold; pKd (PCLO, Q9Y6V0): below the threshold
